Laboratory results: US20230242624A1 (NEURIMMUNE, published 2023)
“And” between values parts separate entries of the source, which are not always exact repeats. Equal values may be shown once.

Assays:
[1] = biological target: T1, SARS-CoV-2-S1 (RBD)-His protein (Trenzyme) (SARS-CoV-2, UniProt P0DTC2 319-541); test: competition ELISA, RBD binding to coated ACE2
[2] = biological target: 2019-nCov Spike protein (S1 mFC tag) (SARS-CoV-2, UniProt P0DTC2 16-685)
[3] = biological target: T1, SARS-CoV-2-S1 (RBD)-His protein …
[4] = biological target: T1, SARS-CoV-2-S1 (RBD)-His protein …; test: direct ELISA on coated RBD-His (FIG. 1D)
[5] = biological target: T1, SARS-CoV-2-S1 (RBD)-His protein …; test: direct ELISA on coated RBD-His

B1: NI-607.532_F9 IgG4 S228P (antibody, V domains shown)
VH: EVQLVESGGNLIQPGGSLRLSCAASGFTVSSNYMSWVRQAPGKGLEWVSVIYSGGSTYYADSVKGRFTISRDNSRNTLYLQMNSLRAEDTAVYFCARDRVVRGVRGNGMDVWGQGTTVTVSS
VL: AIRMTQSPSSLSASVGDRVTITCQASQDINIYLNWYQQRPGKAPKLLIYDASNLETGVPSRFSGSGSGTDFTFTISSLQPEDIATYYCHQYDNLPRTFGQGTKVDIK
[1]
  IC50: ~1.09 µg/mL and ~7.3 nM

B2: NI-607.427_C5 IgG4 S228P (antibody, V domains shown)
VH: QVQLVQSGAEVKKPGASVKVSCKASGYTFTSYGISWVRQAPGQGLEWMGWISAYNGNTNYAQKLQGRVTMTTDTSTSTAYMELRSLRSDDTAVYYCARDNRAGWDQLDYWGQGTLVTVSS
VL: not shown
[1]
  IC50: ~2.79 µg/mL and ~18.6 nM

B3: NI-607.649_B11 (antibody, V domains shown)
VH: QVQLVQSGAEVKKPGSSVKVSCKASGGTFSNYAISWVRQAPGQGLEWMGGIIPIFGTANYAQKFQGRVTITADESTSTAYMELSSLRSEDTAVYYCAGDRWYYDSSGYPTPDEYFQHWGQGTQVTVSS
VL: QSVLTQPPSVSGAPGQRVTISCTGSSSNIGAGYDVHWYQQLPGTAPKLLIYGNSNRPSGVPDRFSGSKSGTSASLAITGLQAEDEADYYCQSYDSSLSGVVFGGGTKLTVL
[2]
  EC50 (read off the curve): ~500 pM

B4: NI-607.649_B11 IgG4 S228P (antibody, V domains shown)
VH: QVQLVQSGAEVKKPGSSVKVSCKASGGTFSNYAISWVRQAPGQGLEWMGGIIPIFGTANYAQKFQGRVTITADESTSTAYMELSSLRSEDTAVYYCAGDRWYYDSSGYPTPDEYFQHWGQGTQVTVSS
VL: QSVLTQPPSVSGAPGQRVTISCTGSSSNIGAGYDVHWYQQLPGTAPKLLIYGNSNRPSGVPDRFSGSKSGTSASLAITGLQAEDEADYYCQSYDSSLSGVVFGGGTKLTVL
[1]
  IC50: ~0.047 µg/mL
[3]
  IC50 (read off the curve): ~0.05 µg/mL
[4]
  EC50: ~8.5 pM

B5: NI-607.531_C8 IgG4 S228P (antibody, V domains shown)
VH: EVQLVESGGGVVQPGRSLRLSCTASGFTFSFYSVHWVRQAPGKGLEWVAVISYDGSTKYYADSVKGRFTISRDNSKNTLYLQMDSLRTEDTAVYYCASPPISPIPAAGTPLAYWGQGTLVTVSS
VL: not shown
[1]
  IC50: ~0.191 µg/mL
[3]
  IC50 (read off the curve): ~0.03 µg/mL
[5]
  EC50: ~8.5 pM

B6: NI-607.532_C11 IgG4 S228P (antibody, V domains shown)
VH: QVQLVESGGGLIQPGGSLRLSCAASGFTVSSNYMSWVRQAPGKGLEWVSVIYSGGSTYYADSVKGRFTISRDNSKNTLFLQMNSLRAEDTAVYYCARDLQYYGMDVWGQGTTVTVSS
VL: DIQMTQSPSFLSASVGDRVTITCRASQGISSYLAWYQQKPGKAPKLLIYAASTLQSGVPSRFSGSGSGTEFTLTISSLQPEDFATYYCQQLDSYPPRDTFGQGTKVEIK
[1]
  IC50: ~2.32 µg/mL and ~15.4 nM
